# In US20110064751A1 (Hoffmann-La Roche, published 2011):
# How the values were obtained:
# [1] = molecular target: T1, Extra Domain B of fibronectin (EDB) (UniProt P02751 1266-1356); assay: SPR (BIACORE), EDB immobilized on the chip, construct as analyte
# T1 construct: domain: Extra Domain B; construct not described; also called fibronectin Ectodomain-B
# [2] = molecular target: T1, Extra Domain B of fibronectin (EDB); assay: BIACORE SPR, EDB immobilized on the chip, analyte at 1.56, 3.125 and 6.25 nM
# [3] = molecular target: T2, DPPIV expressed on HEK293 or CHO cells (Homo sapiens (Human), UniProt P27487 1-766); assay: binding to DPPIV-expressing HEK293 or CHO cells
# T2 construct: also called close homologue of FAP
# [4] = molecular target: T3, Cynomolgus FAP (Cynomolgus); assay: SPR (ProteOn XPR36), purified Fab, monovalent binding
# T3 construct: construct not described; also called cyno FAP
# [5] = molecular target: T4, Human FAP ectodomain + poly-lys-tag + his6-tag (human, UniProt Q12884 27-760); assay: as above
# T4 construct: also called hu FAP
# [6] = molecular target: T5, Murine FAP ectodomain + poly-lys-tag + his6-tag (murine, UniProt P97321 27-761); assay: as above
# T5 construct: also called mu FAP
# [7] = molecular target: T4, Human FAP ectodomain + poly-lys-tag + …; assay: first affinity maturation campaign: phage selections, ELISA and BIACORE kinetic screening
# [8] = molecular target: T5, Murine FAP ectodomain + poly-lys-tag + …; assay: as above
# [9] = molecular target: T6, A1 domain of tenascin (TNC-A1), immobilized domain of Example 1 (UniProt P24821 1072-1162, limits assumed); assay: SPR (BIACORE), TNC-A1 domain immobilized on the chip
# T6 construct: domain: A1; also called TNC-A1 domain
# T6 sequence (looked up): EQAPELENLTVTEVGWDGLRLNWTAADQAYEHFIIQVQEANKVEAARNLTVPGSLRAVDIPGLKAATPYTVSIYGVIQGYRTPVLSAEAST
# T1 sequence (P02751 1266-1356 limits assumed): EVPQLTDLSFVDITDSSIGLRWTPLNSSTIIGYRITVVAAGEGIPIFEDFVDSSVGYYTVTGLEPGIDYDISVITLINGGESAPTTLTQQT
Binder,binding result [3],Kd [4] [nM],Kd [5] [nM],Kd [6] [nM],other results
"L19 IgG (L19 antibody in the human IgG1 format) (antibody, V domains shown, Human IgG1 format; also called the IgG) VH: EVQLLESGGGLVQPGGSLRLSCAASGFTFSSFSMSWVRQAPGKGLEWVSSISGSSGTTYYADSVKGRFTISRDNSKNTLYLQMNSLRAEDTAVYYCAKPFPYFDYWGQGTLVTVSS VL: EIVLTQSPGTLSLSPGERATLSCRASQSVSSSYLAWYQQKPGQAPRLLIYYASSRATGIPDRFSGSGSGTDFTLTISRLEPEDFAVYYCQQTGRIPPTFGQGTKVEIK",–,–,–,–,Kd [1]: 0.26 nM; Kd [2]: 0.263 nM; koff [2]: 0.000637 s⁻¹; kon [2]: 2.42e+06 M⁻¹ s⁻¹
"29B11 Fab (Fab, V domains shown, also called clone 29B11) VH: EVQLLESGGGLVQPGGSLRLSCAASGFTFSSYAMSWVRQAPGKGLEWVSAIIGSGGITYYADSVKGRFTISRDNSKNTLYLQMNSLRAEDTAVYYCAKGWFGGFNYWGQGTLVTVSS VL: EIVLTQSPGTLSLSPGERATLSCRASQSVTSSYLAWYQQKPGQAPRLLINVGSRRATGIPDRFSGSGSGTDFTLTISRLEPEDFAVYYCQQGIMLPPTFGQGTKVEIK",no binding,0.023,0.035,0.436,–
"4B3 Fab (Fab, V domains shown, Fab fragment; also called clone 4B3) VH: not shown VL: EIVLTQSPGTLSLSPGERATLSCRASQSVSSNYLAWYQQKPGQAPRLLIYGAYIRATGIPDRFSGSGSGTDFTLTISRLEPEDFAVYYCQQGQVIPPTFGQGTKVEIK",–,–,–,–,binding result [7]: binds; binding result [8]: binds
"F16 Fab fragment (Fab, V domains shown, also called monovalent Fab fragment of F16) VH: EVQLLESGGGLVQPGGSLRLSCAASGFTFSRYGMSWVRQAPGKGLEWVSAISGSGGSTYYADSVKGRFTISRDNSKNTLYLQMNSLRAEDTAVYYCAKAHNAFDYWGQGTLVTVSS VL: SSELTQDPAVSVALGQTVRITCQGDSLRSYYASWYQQKPGQAPVLVIYGKNNRPSGIPDRFSGSSSGNTASLTITGAQAEDEADYYCNSSVYTMPPVVFGGGTKLTVLG",–,–,–,–,Kd [9]: 50 nM
"23C10 Fab (Fab, V domains shown, also called clone 23C10) VH: EVQLLESGGGLVQPGGSLRLSCAASGFTFSSSAMSWVRQAPGKGLEWVSAISTNGNYTYYADSVKGRFTISRDNSKNTLYLQMNSLRAEDTAVYYCAKGWLGNFDYWGQGTLVTVSS VL: EIVLTQSPGTLSLSPGERATLSCRASQSVSRSYLAWYQQKPGQAPRLLIIGASTRATGIPDRFSGSGSGTDFTLTISRLEPEDFAVYYCQQGQVIPPTFGQGTKVEIK",no binding,0.99,1.6,0.125,–
"F16 IgG (antibody, V domains shown, The light chain entry is named generally (F16, light chain); also called the IgG molecule; copies: 2 + 2) VH: EVQLLESGGGLVQPGGSLRLSCAASGFTFSRYGMSWVRQAPGKGLEWVSAISGSGGSTYYADSVKGRFTISRDNSKNTLYLQMNSLRAEDTAVYYCAKAHNAFDYWGQGTLVTVSS VL: SSELTQDPAVSVALGQTVRITCQGDSLRSYYASWYQQKPGQAPVLVIYGKNNRPSGIPDRFSGSSSGNTASLTITGAQAEDEADYYCNSSVYTMPPVVFGGGTKLTVL",–,–,–,–,Kd [9]: 2.6 nM; increase of affinity attributed to bivalency (IgG against Fab) [9]: 20 fold
"22A3 Fab (Fab, V domains shown, also called clone 22A3) VH: EVQLLESGGGLVQPGGSLRLSCAASGFTFSSYAMSWVRQAPGKGLEWVSAIIGSGSITYYADSVKGRFTISRDNSKNTLYLQMNSLRAEDTAVYYCAKGWFGGFNYWGQGTLVTVSS VL: EIVLTQSPGTLSLSPGERATLSCRASQSVTSSYLAWYQQKPGQAPRLLINVGSRRATGIPDRFSGSGSGTDFTLTISRLEPEDFAVYYCQQGIMLPPTFGQGTKVEIK",no binding,0.522,0.034,0.655,–
